Reference: patent US20040137516A1 (PHAGETECH, published 2004)
Where no end group is shown, it is not given here.

B1: Gal4 DNA binding domain-Lamin C control fusion (pGBKT7LaminC) (other)
chain: MKLLSSIEQACDICRLKKLKCSKEKPKCAKCLKNNWECRYSPKTKRSPLTRAHLTEVESRLERLEQLFLLIFPREDLDMILKMDSLQDIKALLTGLFVQDNVNKDAVTDRLASVETDMPLTLRQHRISATSSSEESSNKGQRQLTVSSEEVVSREVSGIKAAYEAELGDARKTLDSVAKERARLQLELSKVREEFKELKARNTKKEGDLIAAQARLKDLEALLNSKEAALSTALSEKRTLEGELHDLRGQVAKLEAALGEAKKQLQDEMLRRVDAENRLQTMKEELDFQKNIYSEELRETKRRHETRLVEID
notes: also called pGBKLaminC

Key:
[1] = target: T1, Gal4 activation domain-STAAU_R2 fusion (pGADSTAAU_R2) (yeast; Staphylococcus aureus, UniProt P0A022 1-377); test: yeast two-hybrid, growth on THAL minus medium
T1 construct: Expressed in yeast AH109 for two-hybrid analysis; not shown: limits and vector-encoded tags not st
T1 sequence: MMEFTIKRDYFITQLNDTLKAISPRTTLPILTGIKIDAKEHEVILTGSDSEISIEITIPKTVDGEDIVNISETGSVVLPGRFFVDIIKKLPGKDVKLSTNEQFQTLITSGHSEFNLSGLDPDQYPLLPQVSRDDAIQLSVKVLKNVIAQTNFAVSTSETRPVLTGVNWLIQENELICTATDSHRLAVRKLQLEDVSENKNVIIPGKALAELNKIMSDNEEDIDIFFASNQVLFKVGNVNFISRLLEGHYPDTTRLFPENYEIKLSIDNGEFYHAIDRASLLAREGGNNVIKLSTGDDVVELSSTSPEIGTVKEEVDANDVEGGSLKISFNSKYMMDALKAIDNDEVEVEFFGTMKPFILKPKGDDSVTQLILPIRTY

[2] = target: B1; test: yeast two-hybrid, growth on THAL minus medium
[3] = target: T2, S. aureus STAAU_R2 (DNA-directed DNA polymerase III beta subunit, DnaN), native protein in S. aureus extract (Staphylococcus aureus, UniProt P0A022 1-377); test: affinity chromatography of S. aureus extract on GST ORF240-Affigel 10; SDS-PAGE silver stain
T2 construct: also called PT48; PT 48
T2 sequence: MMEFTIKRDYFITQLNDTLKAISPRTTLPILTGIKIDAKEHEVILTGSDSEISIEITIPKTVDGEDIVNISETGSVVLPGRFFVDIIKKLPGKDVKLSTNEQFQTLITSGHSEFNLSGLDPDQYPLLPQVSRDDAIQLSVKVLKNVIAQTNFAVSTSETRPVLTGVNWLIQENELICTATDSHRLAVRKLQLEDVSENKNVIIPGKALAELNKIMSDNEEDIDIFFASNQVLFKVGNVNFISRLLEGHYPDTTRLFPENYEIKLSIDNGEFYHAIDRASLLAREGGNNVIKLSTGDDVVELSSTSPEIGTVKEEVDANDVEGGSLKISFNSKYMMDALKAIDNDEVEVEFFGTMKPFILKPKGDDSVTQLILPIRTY

[4] = target: T2, S. aureus STAAU_R2 (DNA-directed DNA …); test: affinity chromatography of S. aureus extract on GST/ORF25-Affigel 10; 1% SDS eluate, SDS-PAGE silver stain, MALDI-ToF identification
[5] = target: T3, Glutathione-S-transferase (GST)-tagged STAAU_R2 (Staphylococcus aureus, UniProt P0A022 1-377); test: SPR (Biacore 2000); GST-tagged STAAU_R2 captured by anti-GST antibody on CM5 chip, ORF 25 as analyte
T3 construct: Purified recombinant polypeptide captured by an anti-GST antibody on a CM5 chip; not shown: glutathione-S-transferase (GST) tag
T3 sequence: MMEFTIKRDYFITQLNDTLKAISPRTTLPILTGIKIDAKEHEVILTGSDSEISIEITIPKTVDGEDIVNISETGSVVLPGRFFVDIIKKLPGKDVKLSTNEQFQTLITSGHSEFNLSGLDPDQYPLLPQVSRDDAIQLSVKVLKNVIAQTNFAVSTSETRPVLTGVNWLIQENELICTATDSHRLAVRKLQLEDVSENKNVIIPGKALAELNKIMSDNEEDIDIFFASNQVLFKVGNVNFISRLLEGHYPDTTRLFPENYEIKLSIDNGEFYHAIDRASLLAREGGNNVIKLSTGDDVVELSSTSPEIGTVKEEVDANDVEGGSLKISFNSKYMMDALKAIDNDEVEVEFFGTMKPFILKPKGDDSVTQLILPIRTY

B1
binding result [1]: no binding

B2: Gal4 activation domain-Twort ORF 168 fusion (pGADT7 construct) (other)
chain: MLFFKEKFYNELSYYRGGHKDLESMFELALEYIEKLEEEDEQQVTDYENAMEEELRDAVDVIESQLEIIKDIVR
notes: Second orientation of the two-hybrid test; also called Twort ORF 168 polypeptide; not shown: limits and vector-encoded tags not st
binding result [2]: no binding

B3: GST/G1 ORF 240 fusion protein (other)
chain: MVIPSIKAQNKFKNELEYYKQGHISESKMLELAFDYIQELEQNNEYVTNLLEEERYGE
modifications: also: fusion protein with GST moiety, not in chain
notes: also called GST ORF240; not shown: glutathione-S-transferase (GST) moiety encoded by expression vector pGEX 4T-1
binding result [3]: binds

B4: GST/44AHJD ORF 25 fusion protein (other)
chain: MERKYKTVLLYCDEIKGHFPHQISMFEDLYDAKVVYSYYEYNLFTKKYAYIIEYIKEI
modifications: also: fusion protein with GST moiety, not in chain
notes: also called GST/ORF 25; GST/ORF25; not shown: glutathione-S-transferase (GST) moiety encoded by expression vector pGEX 4T-1 (Pharmacia)
binding result [4]: binds

B5: purified bacteriophage 44AHJD ORF 25 protein (other)
chain: MERKYKTVLLYCDEIKGHFPHQISMFEDLYDAKVVYSYYEYNLFTKKYAYIIEYIKEI
notes: Purified recombinant polypeptide injected as analyte in SPR; also called 44ADJH ORF 25
binding result [5]: binds
